Reference: article PMC6222095 (2018)
Substitutions are numbered along the chain they refer to.

B1: complement factor H, homozygous Tyr-402/Val-62 allotype (natural protein)
chain: EDCNELPPRRNTEILTGSWSDQTYPEGTQAIYKCRPGYRSLGNVIMVCRKGEWVALNPLRKCQKRPCGHPGDTPFGTFTLTGGNVFEYGVKAVYTCNEGYQLLGEINYRECDTDGWTNDIPICEVVKCLPVTAPENGKIVSSAMEPDREYHFGQAVRFVCNSGYKIEGDEEMHCSDDGFWSKEKPKCVEISCKSPDVINGSPISQKIIYKENERFQYKCNMGYEYSERGDAVCTESGWRPLPSCEEKSCDNPYIPNGDYSPLRIKHRTGDEITYQCRNGFYPATRGNTAKCTSTGWIPAPRCTLKPCDYPDIKHGGLYHENMRRPYFPVAVGKYYSYYCDEHFETPSGSYWDHIHCTQDGWSPAVPCLRKCYFPYLENGYNQNYGRKFVQGKSIDVACHPGYALPKAQTTVTCMENGWSPTPRCIRVKTCSKSSIDIENGFISESQYTYALKEKAKYQCKLGYVTADGETSGSITCGKDGWSAQPTCIKSCDIPVFMNARTKNDFTWFKLNDTLDYECHDGYESNTGSTTGSIVCGYNGWSDLPICYERECELPKIDVHLVPDRKKDQYKVGEVLKFSCKPGFTIVGPNSVQCYHFGLSPDLPICKEQVQSCGPPPELLNGNVKEKTKEEYGHSEVVEYYCNPRFLMKGPNKIQCVDGEWTTLPVCIVEESTCGDIPELEHGWAQLSSPPYYYGDSVEFNCSESFTMIGHRSITCIHGVWTQLPQCVAIDKLKKCKSSNLIILEEHLKNKKEFDHNSNIRYRCRGKEGWIHTVCINGRWDPEVNCSMAQIQLCPPPPQIPNSHNMTTTLNYRDGEKVSVLCQENYLIQEGEEITCKDGRWQSIPLCVEKIPCSQPPQIEHGTINSSRSSQESYAHGTKLSYTCEGGFRISEENETTCYMGKWSSPPQCEGLPCKSPPEISHGVVAHMSDSYQYGEEVTYKCFEGFGIDGPAIAKCLGEKWSHPPSCIKTDCLSLPSFENAIPMGEKKDVYKAGEQVTYTCATYYKMDGASNVTCINSRWTGRPTCRDTSCVNPPTVQNAYIVSRQMSKYPSGERVRYQCRSPYEMFGDEEVMCLNGNWTEPPQCKDSTGKCGPPPPIDNGDITSFPLSVYAPASSVEYQCQNLYQLEGNKRITCRNGQWSEPPKCLHPCVISREIMENYNIALRWTAKQKLYSRTGESVEFVCKRGYRLSSRSHTLRTTCWDGKLEYPTCAKR
modifications: eight biantennary disialylated N-glycans; sites as printed: Asn-511, Asn-700, Asn-784, Asn-804, Asn-864, Asn-892, Asn-1011, Asn-1077
B2: complement factor H, double homozygous His-402/Val-62 allotype (natural protein)
chain: B1 chain with Y384H
modifications: eight biantennary disialylated N-glycans; sites as printed: Asn-511, Asn-700, Asn-784, Asn-804, Asn-864, Asn-892, Asn-1011, Asn-1077

Experiments:
[1] = biological target: B2; assay: SPR
SPR = biological target: the molecule itself; assay: SPR

Binder	Kd [1] [µM]	Kd (SPR) [µM]
B1	> 40	
B2		> 40
